Laboratory results as given in US20180327499A1 (INSERM INSTITUT NATIONAL DE LA SANT ET DE LA RECHERCHE M …, published 2018).

Experiments:
[1] = target: T1, NKG2D on HEK-293T cells co-transfected with NKG2D and DAP10 (UniProt P26718 1-216, limits assumed); assay: flow cytometry on NKG2D/DAP10-transfected HEK-293 cells, one site total binding fit
T1 construct: whole, on cells; DAP10 is co-expressed for surface expression; also called NKG2D-DAP10 co-transfected HEK293T cells
T1 sequence (looked up): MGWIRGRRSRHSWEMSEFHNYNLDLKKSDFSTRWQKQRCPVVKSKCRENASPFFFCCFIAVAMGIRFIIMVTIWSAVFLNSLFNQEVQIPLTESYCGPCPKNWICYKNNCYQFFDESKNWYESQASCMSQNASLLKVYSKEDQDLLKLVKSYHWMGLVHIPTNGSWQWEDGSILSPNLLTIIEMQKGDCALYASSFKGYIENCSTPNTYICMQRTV

[2] = target: T2, recombinant human NKG2D/Fc chimera (R&D Systems) (human, UniProt P26718 78-216); assay: ELISA on plate coated with Fc-NKG2D, dose-response, one site total binding fit
T2 construct: Bought reagent; The order Fc then NKG2D follows the printed name 'Fc-NKG2D'; also called Fc-NKG2D; NKGD2-Fc human; Fc part of the bought chimera not given
T2 sequence (looked up): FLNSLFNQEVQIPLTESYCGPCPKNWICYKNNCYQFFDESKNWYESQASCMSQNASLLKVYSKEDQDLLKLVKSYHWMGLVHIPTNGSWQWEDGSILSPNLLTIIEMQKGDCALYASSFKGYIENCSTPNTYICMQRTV

Kd [1]: 625 nM
EC50 [2]: 44 nM
B1: sdAb ET2F9 (VHH)
VHH: QVQLVQSGGGLVQPGGSLRLSCAASGFTFDDYAMSWVRQAPGKGLEWVSAISWSGRTTYYAESMKGRFTTSRDNAKNTLYLQMNSLKPEDTALYYCARGDVAIRGNLDAWGQGTQVTVSS
notes: It carries a 6His tag (detected with anti-6His / anti-his antibodies); also called ET2F09; sdAb F9
